Biological target: SARS-CoV-2 recombinant spike HexaPro protein (SARS-CoV-2) (UniProt P0DTC2)
Assay: SPR
Settings: Fc fusion

For FcACE2 dimer construct (Fc-linker-ACE2), which Kd is on record?
Its Kd is 0.43 nM.

Reference: patent publication US20250367270A1
